The source of these data is the Human Domainome abundance scans (Beltran et al. 2025).

± gives the uncertainty stated by the source.

The chains are these.
B1: CD2-associated protein, residues 1 to 59; numbered along this chain, Q9Y5K6 (parent)
chain: MVDYIVEYDYDAVHDDELTIRVGEIIRNVKKLQEEGWLEGELNGRRGMFPDNFVKEIKR

Variants of B1 are the subject of this series. Kind of series: abundance fitness (aPCA) (normalised: wild type 0, dead -1); higher = more abundant; growth selection in yeast, the domain comes from the species named. The note with it: Homo sapiens.
For MVDYIVEYDYDAVHADELTIRVGEIIRNVKKLQEEGWLEGELNGRRGMFPDNFVKEIKR [D15A], the abundance fitness was -0.011 ± 0.092.
To MVDYIVEYDYDAVHDCELTIRVGEIIRNVKKLQEEGWLEGELNGRRGMFPDNFVKEIKR [D16C] belongs 0.229 ± 0.18.
Consider MVDYIVEYDYDAVHDKELTIRVGEIIRNVKKLQEEGWLEGELNGRRGMFPDNFVKEIKR [D16K], for which the abundance fitness is -0.095 ± 0.13.
In the case of MVDYIVEYDYDAVHDLELTIRVGEIIRNVKKLQEEGWLEGELNGRRGMFPDNFVKEIKR [D16L], the abundance fitness is -0.13 ± 0.076.
Consider MVDYIVEYDYDAVHDAELTIRVGEIIRNVKKLQEEGWLEGELNGRRGMFPDNFVKEIKR [D16A], for which the abundance fitness was -0.045 ± 0.059.
Then MVDYIVEYDYDAVHDFELTIRVGEIIRNVKKLQEEGWLEGELNGRRGMFPDNFVKEIKR [D16F], with -0.297 ± 0.15; and MVDYIVEYDYDAVHDGELTIRVGEIIRNVKKLQEEGWLEGELNGRRGMFPDNFVKEIKR [D16G], with -0.069 ± 0.068.
Regarding MVDYIVEYDYDAVHDMELTIRVGEIIRNVKKLQEEGWLEGELNGRRGMFPDNFVKEIKR [D16M], the abundance fitness was -0.073 ± 0.13.
Consider MVDYIVEYDYDAVHDEELTIRVGEIIRNVKKLQEEGWLEGELNGRRGMFPDNFVKEIKR [D16E], for which the abundance fitness is -0.115 ± 0.086.
To MVDYIVEYDYDEVHDDELTIRVGEIIRNVKKLQEEGWLEGELNGRRGMFPDNFVKEIKR [A12E] belongs -0.435 ± 0.18; to MVDYIVEYDYDQVHDDELTIRVGEIIRNVKKLQEEGWLEGELNGRRGMFPDNFVKEIKR [A12Q], -0.349 ± 0.12.
Regarding MVDYIVEYDYDPVHDDELTIRVGEIIRNVKKLQEEGWLEGELNGRRGMFPDNFVKEIKR [A12P], the abundance fitness is -0.591 ± 0.1.
For MVDYIVEYDYDHVHDDELTIRVGEIIRNVKKLQEEGWLEGELNGRRGMFPDNFVKEIKR [A12H], the abundance fitness was -0.924 ± 0.43.
Regarding MVDYIVEYDYDLVHDDELTIRVGEIIRNVKKLQEEGWLEGELNGRRGMFPDNFVKEIKR [A12L], the abundance fitness is -1.12 ± 0.16.
As to MVDYIVEYDYDCVHDDELTIRVGEIIRNVKKLQEEGWLEGELNGRRGMFPDNFVKEIKR [A12C], the abundance fitness was -0.35 ± 0.14.
Turning to MVDYIVEYDYDWVHDDELTIRVGEIIRNVKKLQEEGWLEGELNGRRGMFPDNFVKEIKR [A12W], the abundance fitness was -0.942 ± 0.22.
To MVDYIVEYDYDSVHDDELTIRVGEIIRNVKKLQEEGWLEGELNGRRGMFPDNFVKEIKR [A12S] belongs -0.157 ± 0.088; to MVDYIVEYDYDNVHDDELTIRVGEIIRNVKKLQEEGWLEGELNGRRGMFPDNFVKEIKR [A12N], -0.618 ± 0.22; to MVDYIVEYDYDYVHDDELTIRVGEIIRNVKKLQEEGWLEGELNGRRGMFPDNFVKEIKR [A12Y], -1.05 ± 0.4.
MVDYIVEYDYDRVHDDELTIRVGEIIRNVKKLQEEGWLEGELNGRRGMFPDNFVKEIKR [A12R]: the abundance fitness is -0.416 ± 0.07.
In the case of MVDYIVEYDYDIVHDDELTIRVGEIIRNVKKLQEEGWLEGELNGRRGMFPDNFVKEIKR [A12I], the abundance fitness is -0.782 ± 0.21.
Consider MVDYIVEYDYDMVHDDELTIRVGEIIRNVKKLQEEGWLEGELNGRRGMFPDNFVKEIKR [A12M], for which the abundance fitness is -0.842 ± 0.22.
Regarding MVDYIVEYDYDTVHDDELTIRVGEIIRNVKKLQEEGWLEGELNGRRGMFPDNFVKEIKR [A12T], the abundance fitness was -0.716 ± 0.25.
To MVDYIVEYDYDKVHDDELTIRVGEIIRNVKKLQEEGWLEGELNGRRGMFPDNFVKEIKR [A12K] belongs -0.205 ± 0.14.
Regarding MVDYIVEYDYDDVHDDELTIRVGEIIRNVKKLQEEGWLEGELNGRRGMFPDNFVKEIKR [A12D], the abundance fitness was -0.846 ± 0.44.
MVDYIVEYDYDVVHDDELTIRVGEIIRNVKKLQEEGWLEGELNGRRGMFPDNFVKEIKR [A12V]: the abundance fitness was -1.02 ± 0.24.
With MVDYIVEYDYNAVHDDELTIRVGEIIRNVKKLQEEGWLEGELNGRRGMFPDNFVKEIKR [D11N], the abundance fitness is -0.086 ± 0.17.
As to MVDYIVEYDYVAVHDDELTIRVGEIIRNVKKLQEEGWLEGELNGRRGMFPDNFVKEIKR [D11V], the abundance fitness is -0.002 ± 0.16.
Regarding MVDYIVEYDYYAVHDDELTIRVGEIIRNVKKLQEEGWLEGELNGRRGMFPDNFVKEIKR [D11Y], the abundance fitness was -0.242 ± 0.14.
In the case of MVDYIVEYDYDAEHDDELTIRVGEIIRNVKKLQEEGWLEGELNGRRGMFPDNFVKEIKR [V13E], the abundance fitness was -0.058 ± 0.18.
For MVDYIVEYDYDAPHDDELTIRVGEIIRNVKKLQEEGWLEGELNGRRGMFPDNFVKEIKR [V13P], the abundance fitness is -0.726 ± 0.19.
For the variant MVDYIVEYDYDASHDDELTIRVGEIIRNVKKLQEEGWLEGELNGRRGMFPDNFVKEIKR [V13S], the abundance fitness is 0.067 ± 0.1.
As to MVDYIVEYDYDAWHDDELTIRVGEIIRNVKKLQEEGWLEGELNGRRGMFPDNFVKEIKR [V13W], the abundance fitness is -0.197 ± 0.13.
To MVDYIVEYDYDAYHDDELTIRVGEIIRNVKKLQEEGWLEGELNGRRGMFPDNFVKEIKR [V13Y] belongs -0.328 ± 0.25.
In the case of MVDYIVEYDYDANHDDELTIRVGEIIRNVKKLQEEGWLEGELNGRRGMFPDNFVKEIKR [V13N], the abundance fitness was -0.164 ± 0.17.
For MVDYIVEYDYDARHDDELTIRVGEIIRNVKKLQEEGWLEGELNGRRGMFPDNFVKEIKR [V13R], the abundance fitness was -0.149 ± 0.077.
Then MVDYIVEYDYDALHDDELTIRVGEIIRNVKKLQEEGWLEGELNGRRGMFPDNFVKEIKR [V13L], with -0.188 ± 0.095.
Then MVDYIVEYDYDAGHDDELTIRVGEIIRNVKKLQEEGWLEGELNGRRGMFPDNFVKEIKR [V13G], with -0.046 ± 0.079; and MVDYIVEYDYDAIHDDELTIRVGEIIRNVKKLQEEGWLEGELNGRRGMFPDNFVKEIKR [V13I], with -0.431 ± 0.33; and MVDYIVEYDYDAQHDDELTIRVGEIIRNVKKLQEEGWLEGELNGRRGMFPDNFVKEIKR [V13Q], with -0.268 ± 0.23.
For MVDYIVEYDYDAFHDDELTIRVGEIIRNVKKLQEEGWLEGELNGRRGMFPDNFVKEIKR [V13F], the abundance fitness is -0.354 ± 0.22.
To MVDYIVEYDYDAHHDDELTIRVGEIIRNVKKLQEEGWLEGELNGRRGMFPDNFVKEIKR [V13H] belongs -0.358 ± 0.47; to MVDYIVEYDYDAMHDDELTIRVGEIIRNVKKLQEEGWLEGELNGRRGMFPDNFVKEIKR [V13M], -0.058 ± 0.18; to MVDYIVEYDYDATHDDELTIRVGEIIRNVKKLQEEGWLEGELNGRRGMFPDNFVKEIKR [V13T], -0.275 ± 0.11.
Regarding MVDYIVEYDYDAKHDDELTIRVGEIIRNVKKLQEEGWLEGELNGRRGMFPDNFVKEIKR [V13K], the abundance fitness is -0.074 ± 0.14.
